From paper PMC8631942 (2021) come the findings set out here.

Substitutions are numbered along the chain they refer to.

First the molecules themselves.
B1: SNAP-SHP1-cSH2 (domain or fragment)
chain: WYHGHMSGGQAETLLQAKGEPWTFLVRESLSQPGDFVLSVLSDQPKAGPGSPLRVTHIKVMCEGGRYTVGGLETFDSLTDLVEHFKKTGIEEASGAFVYLRQPY
B2: His10-BTLA^ICD BTLA^FFFY, pre-phosphorylated (domain or fragment)
chain: DTAGREINLVDAHLKSEQTEASTRQNSQVLLSETGIFDNDPDLCFRMQEGSEVFSNPCLEENKPGIVFASLNHSVIGPNSRLARNVKEAPTEYASICVRS
modifications: pre-phosphorylated with Fyn; lone tyrosine (Y282) in the ITSM
B3: His10-BTLA^ICD BTLA^FFYF, pre-phosphorylated (domain or fragment)
chain: B2 chain with F68Y, Y93F
modifications: pre-phosphorylated with Fyn; lone tyrosine (Y257) in the ITIM

In assay [1] the target is B3. Nature of the assay: SPR.
The target of assay [2] is SNAP-SHP2-cSH2. Nature of the assay: SPR.

Consider B1, for which the Kd in assay [1] amounted to 1800 nM. In other words, the single-digit micromolar range.
Turning to B2, the Kd in assay [2] is 1100 nM.
B3 yielded a Kd in assay [2] of 1100 nM.
